Experimental data reported in patent publication US20110091994A1, “Methods for Screening Compounds for Treating and/or Preventing an Hepatitis C Virus Infection” (priority 2008, published 2011).

B1: SLC31A2 (protein, UniProt O15432 1-143, looked up)
Protein SLC31A2: MAMHFIFSDTAVLLFDFWSVHSPAGMALSVLVLLLLAVLYEGIKVGKAKLLNQVLVNLPTSISQQTIAETDGDSAGSDSFPVGRTHHRWYLCHFGQSLIHVIQVVIGYFIMLAVMSYNTWIFLGVVLGSAVGYYLAYPLLSTA
B2: ZCCHC7 (protein, UniProt Q8N3Z6 1-543, looked up)
Zinc finger CCHC …: MMFGGYETIEAYEDDLYRDESSSELSVDSEVEFQLYSQIHYAQDLDDVIREEEHEEKNSGNSESSSSKPNQKKLIVLSDSEVIQLSDGSEVITLSDEDSIYRCKGKNVRVQAQENAHGLSSSLQSNELVDKKCKSDIEKPKSEERSGVIREVMIIEVSSSEEEESTISEGDNVESWMLLGCEVDDKDDDILLNLVGCENSVTEGEDGINWSISDKDIEAQIANNRTPGRWTQRYYSANKNIICRNCDKRGHLSKNCPLPRKVRRCFLCSRRGHLLYSCPAPLCEYCPVPKMLDHSCLFRHSWDKQCDRCHMLGHYTDACTEIWRQYHLTTKPGPPKKPKTPSRPSALAYCYHCAQKGHYGHECPEREVYDPSPVSPFICYYDDKYEIQEREKRLKQKIKVLKKNGVIPEPSKLPYIKAANENPHHDIRKGRASWKSNRWPQENKETQKEMKNKNRNWEKHRKADRHREVDEDFPRGPKTYSSPGSFKTQKPSKPFHRSSHYHTSREDKSPKEGKRGKQKKKERCWEDDDNDNLFLIKQRKKKS
B3: ZHX3 (protein, UniProt Q9H4I2 1-956, looked up)
Zinc fingers and homeoboxes …: MASKRKSTTPCMIPVKTVVLQDASMEAQPAETLPEGPQQDLPPEASAASSEAAQNPSSTDGSTLANGHRSTLDGYLYSCKYCDFRSHDMTQFVGHMNSEHTDFNKDPTFVCSGCSFLAKTPEGLSLHNATCHSGEASFVWNVAKPDNHVVVEQSIPESTSTPDLAGEPSAEGADGQAEIIITKTPIMKIMKGKAEAKKIHTLKENVPSQPVGEALPKLSTGEMEVREGDHSFINGAVPVSQASASSAKNPHAANGPLIGTVPVLPAGIAQFLSLQQQPPVHAQHHVHQPLPTAKALPKVMIPLSSIPTYNAAMDSNSFLKNSFHKFPYPTKAELCYLTVVTKYPEEQLKIWFTAQRLKQGISWSPEEIEDARKKMFNTVIQSVPQPTITVLNTPLVASAGNVQHLIQAALPGHVVGQPEGTGGGLLVTQPLMANGLQATSSPLPLTVTSVPKQPGVAPINTVCSNTTSAVKVVNAAQSLLTACPSITSQAFLDASIYKNKKSHEQLSALKGSFCRNQFPGQSEVEHLTKVTGLSTREVRKWFSDRRYHCRNLKGSRAMIPGDHSSIIIDSVPEVSFSPSSKVPEVTCIPTTATLATHPSAKRQSWHQTPDFTPTKYKERAPEQLRALESSFAQNPLPLDEELDRLRSETKMTRREIDSWFSERRKKVNAEETKKAEENASQEEEEAAEDEGGEEDLASELRVSGENGSLEMPSSHILAERKVSPIKINLKNLRVTEANGRNEIPGLGACDPEDDESNKLAEQLPGKVSCKKTAQQRHLLRQLFVQTQWPSNQDYDSIMAQTGLPRPEVVRWFGDSRYALKNGQLKWYEDYKRGNFPPGLLVIAPGNRELLQDYYMTHKMLYEEDLQNLCDKTQMSSQQVKQWFAEKMGEETRAVADTGSEDQGPGTGELTAVHKGMGDTYSEVSENSESWEPRVPEASSEPFDTSSPQAGRQLETD
B4: ZNF281 (protein, UniProt Q9Y2X9 1-895, looked up)
Zinc finger protein 281: MKIGSGFLSGGGGTGSSGGSGSGGGGSGGGGGGGSSGRRAEMEPTFPQGMVMFNHRLPPVTSFTRPAGSAAPPPQCVLSSSTSAAPAAEPPPPPAPDMTFKKEPAASAAAFPSQRTSWGFLQSLVSIKQEKPADPEEQQSHHHHHHHHYGGLFAGAEERSPGLGGGEGGSHGVIQDLSILHQHVQQQPAQHHRDVLLSSSSRTDDHHGTEEPKQDTNVKKAKRPKPESQGIKAKRKPSASSKPSLVGDGEGAILSPSQKPHICDHCSAAFRSSYHLRRHVLIHTGERPFQCSQCSMGFIQKYLLQRHEKIHSREKPFGCDQCSMKFIQKYHMERHKRTHSGEKPYKCDTCQQYFSRTDRLLKHRRTCGEVIVKGATSAEPGSSNHTNMGNLAVLSQGNTSSSRRKTKSKSIAIENKEQKTGKTNESQISNNINMQSYSVEMPTVSSSGGIIGTGIDELQKRVPKLIFKKGSRKNTDKNYLNFVSPLPDIVGQKSLSGKPSGSLGIVSNNSVETIGLLQSTSGKQGQISSNYDDAMQFSKKRRYLPTASSNSAFSINVGHMVSQQSVIQSAGVSVLDNEAPLSLIDSSALNAEIKSCHDKSGIPDEVLQSILDQYSNKSESQKEDPFNIAEPRVDLHTSGEHSELVQEENLSPGTQTPSNDKASMLQEYSKYLQQAFEKSTNASFTLGHGFQFVSLSSPLHNHTLFPEKQIYTTSPLECGFGQSVTSVLPSSLPKPPFGMLFGSQPGLYLSALDATHQQLTPSQELDDLIDSQKNLETSSAFQSSSQKLTSQKEQKNLESSTGFQIPSQELASQIDPQKDIEPRTTYQIENFAQAFGSQFKSGSRVPMTFITNSNGEVDHRVRTSVSDFSGYTNMMSDVSEPCSTRVKTPTSQSYR
B5: XAB2 (protein, UniProt Q9HCS7 1-855, looked up)
Pre-mRNA-splicing factor SYF1: MVVMARLSRPERPDLVFEEEDLPYEEEIMRNQFSVKCWLRYIEFKQGAPKPRLNQLYERALKLLPCSYKLWYRYLKARRAQVKHRCVTDPAYEDVNNCHERAFVFMHKMPRLWLDYCQFLMDQGRVTHTRRTFDRALRALPITQHSRIWPLYLRFLRSHPLPETAVRGYRRFLKLSPESAEEYIEYLKSSDRLDEAAQRLATVVNDERFVSKAGKSNYQLWHELCDLISQNPDKVQSLNVDAIIRGGLTRFTDQLGKLWCSLADYYIRSGHFEKARDVYEEAIRTVMTVRDFTQVFDSYAQFEESMIAAKMETASELGREEEDDVDLELRLARFEQLISRRPLLLNSVLLRQNPHHVHEWHKRVALHQGRPREIINTYTEAVQTVDPFKATGKPHTLWVAFAKFYEDNGQLDDARVILEKATKVNFKQVDDLASVWCQCGELELRHENYDEALRLLRKATALPARRAEYFDGSEPVQNRVYKSLKVWSMLADLEESLGTFQSTKAVYDRILDLRIATPQIVINYAMFLEEHKYFEESFKAYERGISLFKWPNVSDIWSTYLTKFIARYGGRKLERARDLFEQALDGCPPKYAKTLYLLYAQLEEEWGLARHAMAVYERATRAVEPAQQYDMFNIYIKRAAEIYGVTHTRGIYQKAIEVLSDEHAREMCLRFADMECKLGEIDRARAIYSFCSQICDPRTTGAFWQTWKDFEVRHGNEDTIKEMLRIRRSVQATYNTQVNFMASQMLKVSGSATGTVSDLAPGQSGMDDMKLLEQRAEQLAAEAERDQPLRAQSKILFVRSDASREELAELAQQVNPEEIQLGEDEDEDEMDLEPNEVRLEQQSVPAAVFGSLKED
B6: ZBTB1 (protein, UniProt Q9Y2K1 1-713, looked up)
Zinc finger and BTB …: MAKPSHSSYVLQQLNNQREWGFLCDCCIAIDDIYFQAHKAVLAACSSYFRMFFMNHQHSTAQLNLSNMKISAECFDLILQFMYLGKIMTAPSSFEQFKVAMNYLQLYNVPDCLEDIQDADCSSSKCSSSASSKQNSKMIFGVRMYEDTVARNGNEANRWCAEPSSTVNTPHNREADEESLQLGNFPEPLFDVCKKSSVSKLSTPKERVSRRFGRSFTCDSCGFGFSCEKLLDEHVLTCTNRHLYQNTRSYHRIVDIRDGKDSNIKAEFGEKDSSKTFSAQTDKYRGDTSQAADDSASTTGSRKSSTVESEIASEEKSRAAERKRIIIKMEPEDIPTDELKDFNIIKVTDKDCNESTDNDELEDEPEEPFYRYYVEEDVSIKKSGRKTLKPRMSVSADERGGLENMRPPNNSSPVQEDAENASCELCGLTITEEDLSSHYLAKHIENICACGKCGQILVKGRQLQEHAQRCGEPQDLTMNGLGNTEEKMDLEENPDEQSEIRDMFVEMLDDFRDNHYQINSIQKKQLFKHSACPFRCPNCGQRFETENLVVEHMSSCLDQDMFKSAIMEENERDHRRKHFCNLCGKGFYQRCHLREHYTVHTKEKQFVCQTCGKQFLRERQLRLHNDMHKGMARYVCSICDQGNFRKHDHVRHMISHLSAGETICQVCFQIFPNNEQLEQHMDVHLYTCGICGAKFNLRKDMRSHYNAKHLKRT
B7: XRN2 (protein, UniProt Q9H0D6 1-950, looked up)
5'-3' exoribonuclease 2: MGVPAFFRWLSRKYPSIIVNCVEEKPKECNGVKIPVDASKPNPNDVEFDNLYLDMNGIIHPCTHPEDKPAPKNEDEMMVAIFEYIDRLFSIVRPRRLLYMAIDGVAPRAKMNQQRSRRFRASKEGMEAAVEKQRVREEILAKGGFLPPEEIKERFDSNCITPGTEFMDNLAKCLRYYIADRLNNDPGWKNLTVILSDASAPGEGEHKIMDYIRRQRAQPNHDPNTHHCLCGADADLIMLGLATHEPNFTIIREEFKPNKPKPCGLCNQFGHEVKDCEGLPREKKGKHDELADSLPCAEGEFIFLRLNVLREYLERELTMASLPFTFDVERSIDDWVFMCFFVGNDFLPHLPSLEIRENAIDRLVNIYKNVVHKTGGYLTESGYVNLQRVQMIMLAVGEVEDSIFKKRKDDEDSFRRRQKEKRKRMKRDQPAFTPSGILTPHALGSRNSPGSQVASNPRQAAYEMRMQNNSSPSISPNTSFTSDGSPSPLGGIKRKAEDSDSEPEPEDNVRLWEAGWKQRYYKNKFDVDAADEKFRRKVVQSYVEGLCWVLRYYYQGCASWKWYYPFHYAPFASDFEGIADMPSDFEKGTKPFKPLEQLMGVFPAASGNFLPPSWRKLMSDPDSSIIDFYPEDFAIDLNGKKYAWQGVALLPFVDERRLRAALEEVYPDLTPEETRRNSLGGDVLFVGKHHPLHDFILELYQTGSTEPVEVPPELCHGIQGKFSLDEEAILPDQIVCSPVPMLRDLTQNTVVSINFKDPQFAEDYIFKAVMLPGARKPAAVLKPSDWEKSSNGRQWKPQLGFNRDRRPVHLDQAAFRTLGHVMPRGSGTGIYSNAAPPPVTYQGNLYRPLLRGQAQIPKLMSNMRPQDSWRGPPPLFQQQRFDRGVGAEPLLPWNRMLQTQNAAFQPNQYQMLAGPGGYPPRRDDRGGRQGYPREGRKYPLPPPSGRYNWN

Biological target: T1, HCV proteins (Hepatitis C virus genotype 1b, UniProt Q9WMX2)
T1 construct: expressed in transfected cells
Assay: Validation by Y2H pairwise matrices;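 also: yeast two-hybrid pairwise tests of interactions first found in Y2H screens of HCV bait proteins against human cDNA libraries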
Format: binding
Conditions: validation of interaction with HCV protein CORE
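For IMAP Y2H IMAP1 (number of IST) in this document: yeast two-hybrid screens using HCV genotype 1b proteins fused to Gal4-DB as baits against prey cDNA libraries from human spleen and foetal brain, IMAP1 via transformation and IMAP2 via mating.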
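For IMAP Y2H IMAP2 (number of IST) in this document: yeast two-hybrid screens using HCV genotype 1b proteins fused to Gal4-DB as baits against prey cDNA libraries from human spleen and foetal brain, IMAP1 via transformation and IMAP2 via mating.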
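For Interaction with viral protein in this document: yeast two-hybrid screens using HCV genotype 1b proteins fused to Gal4-DB as baits against prey cDNA libraries from human spleen and foetal brain, IMAP1 via transformation and IMAP2 via mating.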
Description: A comprehensive interactome map between HCV and cellular proteins was generated by Y2H screens. Twenty seven constructs encoding full-length HCV mature proteins or discrete domains were cloned using a recombination-based cloning system (10) (FIG. 6). Four independent screens were performed with each HCV bait protein, probing two distinct human cDNA libraries (Supplementary Methods). […] Two validation methods were used to assess the confidence of the IMAP Y2H dataset.

Row | Molecule | Y2H matrices
1 | B1 | +

Same assay, conditions: validation of interaction with HCV protein NS3

Row | Molecule | Y2H matrices
2 | B2 | +
3 | B3 | +
4 | B4 | +
5 | B5 | +
6 | B6 | +
7 | B7 | +

Test system: HCV ORFs (Gal4-DB fusions)
Assay: not given
Format: binding, HCV genotype 1b, isolate con1
Conditions: human protein listed by gene symbol; the value names the HCV protein it interacts with

Row | Molecule | Interaction with viral protein
8 | B2 | NS3
9 | B3 | NS3
10 | B4 | NS3
11 | B1 | CORE
12 | B5 | NS3
13 | B6 | NS3
14 | B7 | NS3

Biological target: T2, HCV ORFs (Gal4-DB fusions) (Hepatitis C virus genotype 1b, UniProt Q9WMX2)
T2 construct: expressed in transfected cells; host or cells: Saccharomyces cerevisiae MAV203 (IMAP1) / AH109 (IMAP2)
Assay: not given
Format: binding, HCV genotype 1b, isolate con1
Conditions: HCV protein CORE as bait; human protein as prey

Row | Molecule | IMAP Y2H IMAP1 (number of IST)
15 | B1 | 1

Same assay, conditions: HCV protein NS3 as bait; human protein as prey

Row | Molecule | IMAP Y2H IMAP1 (number of IST) | IMAP Y2H IMAP2 (number of IST)
16 | B2 | 2 | 1
17 | B3 | 4 | 
18 | B4 | 1 | 
19 | B5 | 2 | 
20 | B6 | 1 | 
21 | B7 | 1 | 
